According to US5218092A, “Modified granulocyte-colony stimulating factor polypeptide with added carbohydrate chains” (Kyowa Hakko Kogyo Co., Ltd., priority 1988, dated 1993):

What was measured:
[1] = tested on: fibrin; settings: cited from earlier work
[2] = tested on: thrombin; settings: cited from earlier work
[3] = tested on: plasminogen in blood; settings: in vivo; cited from earlier work
[4] = cited from earlier work; for site of clearance: sialic acid-containing or after sialic acid elimination
[5] = no carbohydrate chain; cited from earlier work
[6] = no carbohydrate chain; cited from earlier work; remark: listed apart in the source
[7] = tested on: plasmin; settings: cited from earlier work
[8] = rat plasma and rat perfusate; cited from earlier work
[9] = tested on: chymotrypsin; experiment: proteolysis susceptibility of hG-CSF and hG-CSF[ND28] produced in Escherichia coli; assay type: in vitro ADME
Source text: Analysis of hG-CSF and the hG-CSF derivative hG-CSF[ND 28] […] On the basis of the above findings, it is estimated that, in hG-CSF[ND28], a portion close to the N terminus and a portion in the vicinity of the 144th (from the N terminus) amino acid are found on the polypeptide surface. Therefore, an attempt was made to add a carbohydrate chain to hG-CSF[ND28] on the 6th or 145th (from the N terminus) amino acid residue thereof. An hG-CSF[ND28] derivative which has a carbohydrate chain addition site on the 6th (from the N terminus) amino acid residue is hG-CSF[ND28N6] and a derivative which has a carbohydrate chain addition site on the 145th (from the N terminus) amino acid residue is hG-CSF[ND28N145]. In these cases, it is expected that the carbohydrate chain addition can result in development of protease resistance. Retardation of blood clearance can also be expected as a result of stabilization of the polypeptide.

For Urokinase, the affinity for fibrin [1] is listed as “no affinity for fibrin”, the “conversion under the action of thrombin” value [2] is listed as “converted to an inactive form upon exposure to a protease called thrombin” and the “systemic hyperfibrinolysis / bleeding tendency” value [3] is listed as “causing systemic hyperfibrinolysis and leading to a bleeding tendency”.

In the case of “hGM-CSF after sialic acid elimination: hGM-CSF after sialic acid elimination”, the rate of clearance ([4]; after sialic acid elimination) is listed as “increased rate of clearance” and the site of clearance [4] is listed as “undergoes clearance in the liver”.

For “hGM-CSF: human granulocyte macrophage colony stimulating factor (hGM-CSF)”, the “rate of clearance from the rat plasma” value ([4]; dependence on number of carbohydrate chains) is given as “the rate of clearance from the rat plasma increases in proportion to the reduction in the number of carbohydrate chains”.

For “human erythropoietin: human erythropoietin produced in Escherichia coli or enzymatically treated for carbohydrate chain elimination”, the activity in vitro [5] is given as “shows activity in vitro”, the activity in vivo [6] is given as “shows decreased activity in vivo” and the clearance [6] is given as “undergoes rapid clearance”.

For “sialic acid-containing hGM-CSF: sialic acid-containing hGM-CSF”, the site of clearance [4] is listed as “undergoes clearance in the kidney”.

In the case of streptokinase: thrombolytic agent, the affinity for fibrin [1] is listed as “no affinity for fibrin” and the “systemic hyperfibrinolysis / bleeding tendency” value [3] is listed as “causing systemic hyperfibrinolysis and leading to a bleeding tendency”.

For “t-PA: tissue plasminogen activator (t-PA)”, the affinity for fibrin [1] is listed as “have affinity for fibrin” and the “conversion under the action of plasmin” value [7] is listed as “Plasmin converts the single-chainform to the double-chain form”.

B1: α1 -acid glycoproteins: α1 -acid glycoproteins differing in carbohydrate structure as biosynthesized in a rat liver primary culture system (protein, UniProt P02764 19-205, looked up)
Alpha-1-acid glycoprotein: QNPEPANITLGIPITNETLKWLSDKWFYMGAAFRDPVFKQAVQTIQTEYFYLTPNLINDTIELREFQTTDDQCVYNFTHLGVQRENGTLSKCAGAVKIFAHLIVLKKHGTFMLAFNLTDENRGLSFYAKKPDLSPELRKIFQQAVKDVGMDESEIVFVDWTKDKCSEQQKQQLELEKETKKETKKDP
modifications: glycoform mixture
notes: α1 -acid glycoproteins differing in carbohydrate structure as biosynthesized in a rat liver primary culture system
For B1, the “order of clearance rates” value [8] is given as “high mannose type>carbohydrate chain-deficient type>hybrid type>complex type (natural form)”.

B2: hG-CSF: human granulocyte colony stimulating factor (hG-CSF) (protein, UniProt P09919 31-207, looked up)
Granulocyte …: TPLGPASSLPQSFLLKCLEQVRKIQGDGAALQEKLVSECATYKLCHPEELVLLGHSLGIPWAPLSSCPSQALQLAGCLSQLHSGLFLYQGLLQALEGISPELGPTLDTLQLDVADFATTIWQQMEELGMAPALQPTQGAMPAFASAFQRRAGGVLVASHLQSFLEVSYRVLRHLAQP
In the case of B2, the “susceptibility to proteolysis by chymotrypsin behind 144th amino acid Phe” value [9] is reported as “susceptible to proteolysis by chymotrypsin”.
